Results: IntAct's records for PubMed 11297558

B1: Adhesion G protein-coupled receptor E5 (Homo sapiens), P48960 (parent)
chain: MGGRVFLAFCVWLTLPGAETQDSRGCARWCPQNSSCVNATACRCNPGFSSFSEIITTPTETCDDINECATPSKVSCGKFSDCWNTEGSYDCVCSPGYEPVSGAKTFKNESENTCQDVDECQQNPRLCKSYGTCVNTLGSYTCQCLPGFKFIPEDPKVCTDVNECTSGQNPCHSSTHCLNNVGSYQCRCRPGWQPIPGSPNGPNNTVCEDVDECSSGQHQCDSSTVCFNTVGSYSCRCRPGWKPRHGIPNNQKDTVCEDMTFSTWTPPPGVHSQTLSRFFDKVQDLGRDSKTSSAEVTIQNVIKLVDELMEAPGDVEALAPPVRHLIATQLLSNLEDIMRILAKSLPKGPFTYISPSNTELTLMIQERGDKNVTMGQSSARMKLNWAVAAGAEDPGPAVAGILSIQNMTTLLANASLNLHSKKQAELEEIYESSIRGVQLRRLSAVNSIFLSHNNTKELNSPILFAFSHLESSDGEAGRDPPAKDVMPGPRQELLCAFWKSDSDRGGHWATEGCQVLGSKNGSTTCQCSHLSSFAILMAHYDVEDWKLTLITRVGLALSLFCLLLCILTFLLVRPIQGSRTTIHLHLCICLFVGSTIFLAGIENEGGQVGLRCRLVAGLLHYCFLAAFCWMSLEGLELYFLVVRVFQGQGLSTRWLCLIGYGVPLLIVGVSAAIYSKGYGRPRYCWLDFEQGFLWSFLGPVTFIILCNAVIFVTTVWKLTQKFSEINPDMKKLKKARALTITAIAQLFLLGCTWVFGLFIFDDRSLVLTYVFTILNCLQGAFLYLLHCLLNKKVREEYRKWACLVAGGSKYSEFTSTTSGTGHNQTRALRASESGI
B2: Adhesion G protein-coupled receptor E2 (Homo sapiens), Q9UHX3 (parent)
chain: MGGRVFLVFLAFCVWLTLPGAETQDSRGCARWCPQDSSCVNATACRCNPGFSSFSEIITTPMETCDDINECATLSKVSCGKFSDCWNTEGSYDCVCSPGYEPVSGAKTFKNESENTCQDVDECQQNPRLCKSYGTCVNTLGSYTCQCLPGFKLKPEDPKLCTDVNECTSGQNPCHSSTHCLNNVGSYQCRCRPGWQPIPGSPNGPNNTVCEDVDECSSGQHQCDSSTVCFNTVGSYSCRCRPGWKPRHGIPNNQKDTVCEDMTFSTWTPPPGVHSQTLSRFFDKVQDLGRDYKPGLANNTIQSILQALDELLEAPGDLETLPRLQQHCVASHLLDGLEDVLRGLSKNLSNGLLNFSYPAGTELSLEVQKQVDRSVTLRQNQAVMQLDWNQAQKSGDPGPSVVGLVSIPGMGKLLAEAPLVLEPEKQMLLHETHQGLLQDGSPILLSDVISAFLSNNDTQNLSSPVTFTFSHRSVIPRQKVLCVFWEHGQNGCGHWATTGCSTIGTRDTSTICRCTHLSSFAVLMAHYDVQEEDPVLTVITYMGLSVSLLCLLLAALTFLLCKAIQNTSTSLHLQLSLCLFLAHLLFLVAIDQTGHKVLCSIIAGTLHYLYLATLTWMLLEALYLFLTARNLTVVNYSSINRFMKKLMFPVGYGVPAVTVAISAASRPHLYGTPSRCWLQPEKGFIWGFLGPVCAIFSVNLVLFLVTLWILKNRLSSLNSEVSTLRNTRMLAFKATAQLFILGCTWCLGILQVGPAARVMAYLFTIINSLQGVFIFLVYCLLSQQVREQYGKWSKGIRKLKTESEMHTLSSSAKADTSKPSTVN

Variants of: B1
Details: with daf_human CD55, P08174
Chain of daf_human CD55, P08174 (P08174 whole entry): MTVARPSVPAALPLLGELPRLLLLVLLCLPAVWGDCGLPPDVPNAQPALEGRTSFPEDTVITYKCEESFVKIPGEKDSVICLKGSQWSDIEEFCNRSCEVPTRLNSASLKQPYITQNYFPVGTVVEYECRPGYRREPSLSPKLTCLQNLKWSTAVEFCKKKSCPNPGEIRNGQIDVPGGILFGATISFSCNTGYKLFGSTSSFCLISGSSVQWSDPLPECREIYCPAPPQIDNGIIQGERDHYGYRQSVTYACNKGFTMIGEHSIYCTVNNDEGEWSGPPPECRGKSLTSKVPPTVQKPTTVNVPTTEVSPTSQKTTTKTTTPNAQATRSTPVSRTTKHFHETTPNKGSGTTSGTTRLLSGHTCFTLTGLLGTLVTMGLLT

| effect of a mutation on the interaction | Variant |
| --- | --- |
| decreasing interaction strength | N33D |
| decreasing interaction strength | T59M |
| decreasing interaction strength | P71L |

Variants of: B2
Details: with daf_human CD55, P08174

| effect of a mutation on the interaction | Variant |
| --- | --- |
| causing an interaction | L74P |
| causing an interaction | D36N |
| causing an interaction | M62T |
